For experiment [1], the target named is T1, H77 E2E1-I53-50A trimer (Hepatitis C virus genotype 1a, strain …, UniProt P27958, stabilised).
T1 construct: source: HEK293F, co-transfected with furin, purified (Strep-TactinXT, SEC); copies: 3 + 3
Put plainly: ELISA. Conditions: both partners purified.

Experiment [2] has as its target T2, AMS2b E2E1-I53-50A trimer (Hepatitis C virus genotype 2b, strain …, stabilised).
T2 construct: also called AMS2b E2E1 trimer; source: HEK293F, co-transfected with furin, purified (Strep-TactinXT, SEC); copies: 3 + 3
Put plainly: ELISA. Conditions: both partners purified.

For experiment [3], the target named is T3, AMS3a E2E1-I53-50A trimer (Hepatitis C virus genotype 3a, strain …, stabilised).
T3 construct: also called AMS3a E2E1 trimer; source: HEK293F, co-transfected with furin, purified (Strep-TactinXT, SEC); copies: 3 + 3
Put plainly: ELISA. Conditions: both partners purified.

Experiment [4] has as its target T4, UKNP4.1.1 E2E1-I53-50A trimer (Hepatitis C virus genotype 4a, strain …, UniProt A0A0U3JDN1, stabilised).
T4 construct: also called UKNP4.1.1 E2E1 trimer; source: HEK293F, co-transfected with furin, purified (Strep-TactinXT, SEC); copies: 3 + 3
Put plainly: ELISA. Particulars: both partners purified.

Experiment [5] deals with T5, UKNP5.2.1 E2E1-I53-50A trimer (Hepatitis C virus genotype 5, strain …, UniProt A0A0U3TV66, stabilised).
T5 construct: also called UKNP5.2.1 E2E1 trimer; source: HEK293F, co-transfected with furin, purified (Strep-TactinXT, SEC); copies: 3 + 3
Kind of experiment: ELISA. Particulars: both partners purified.

Experiment [6] addresses T6, UKNP6.1.2 E2E1-I53-50A trimer (Hepatitis C virus genotype 6, strain …, UniProt A0A0U3SJ35, stabilised).
T6 construct: also called UKNP6.1.2 E2E1 trimer; source: HEK293F, co-transfected with furin, purified (Strep-TactinXT, SEC); copies: 3 + 3
Kind of experiment: ELISA. Conditions: both partners purified.

For experiment [7], the target named is T7, AMS2b E2E1-I53-50A trimer (Hepatitis C virus genotype 2b, strain …, stabilised).
T7 construct: also called AMS2b E2E1 trimer; source: HEK293F, co-transfected with furin, purified (Strep-TactinXT, SEC); copies: 3 + 3
T7 chain 1: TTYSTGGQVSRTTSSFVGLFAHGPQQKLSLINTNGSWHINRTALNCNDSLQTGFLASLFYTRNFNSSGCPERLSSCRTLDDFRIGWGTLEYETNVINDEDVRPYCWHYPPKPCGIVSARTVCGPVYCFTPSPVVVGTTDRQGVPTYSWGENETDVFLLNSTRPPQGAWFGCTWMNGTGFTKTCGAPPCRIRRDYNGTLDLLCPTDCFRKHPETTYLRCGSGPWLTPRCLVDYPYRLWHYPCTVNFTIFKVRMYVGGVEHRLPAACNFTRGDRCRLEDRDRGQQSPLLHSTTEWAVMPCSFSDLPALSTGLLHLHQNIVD
T7 chain 2: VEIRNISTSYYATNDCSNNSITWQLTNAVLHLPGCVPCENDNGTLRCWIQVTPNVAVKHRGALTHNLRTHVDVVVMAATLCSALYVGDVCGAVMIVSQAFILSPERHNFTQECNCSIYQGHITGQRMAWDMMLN
Kind of experiment: ELISA. Conditions: both partners purified.

Experiment [8] concerns the target T8, AMS3a E2E1-I53-50A trimer (Hepatitis C virus genotype 3a, strain …, stabilised).
T8 construct: also called AMS3a E2E1 trimer; source: HEK293F, co-transfected with furin, purified (Strep-TactinXT, SEC); copies: 3 + 3
T8 chain 1: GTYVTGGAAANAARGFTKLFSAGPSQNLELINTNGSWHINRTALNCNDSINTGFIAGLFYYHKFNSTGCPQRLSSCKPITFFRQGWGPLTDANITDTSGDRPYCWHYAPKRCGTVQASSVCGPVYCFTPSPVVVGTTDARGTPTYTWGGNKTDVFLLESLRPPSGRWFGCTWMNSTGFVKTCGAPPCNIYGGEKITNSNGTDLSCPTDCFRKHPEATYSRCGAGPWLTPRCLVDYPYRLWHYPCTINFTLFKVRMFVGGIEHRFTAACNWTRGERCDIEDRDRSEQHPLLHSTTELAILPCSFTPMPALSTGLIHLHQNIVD
T8 chain 2: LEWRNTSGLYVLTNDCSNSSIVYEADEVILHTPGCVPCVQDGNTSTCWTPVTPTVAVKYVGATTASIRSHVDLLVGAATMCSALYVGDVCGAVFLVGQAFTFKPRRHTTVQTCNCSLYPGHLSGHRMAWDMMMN
Put plainly: ELISA. Particulars: both partners purified.

Experiment [9] has as its target T9, UKNP4.1.1 E2E1-I53-50A trimer (Hepatitis C virus genotype 4a, strain …, UniProt A0A0U3JDN1, stabilised).
T9 construct: also called UKNP4.1.1 E2E1 trimer; source: HEK293F, co-transfected with furin, purified (Strep-TactinXT, SEC); copies: 3 + 3
Put plainly: ELISA. Particulars: both partners purified. This is another data set of the same source.

In experiment [10] the target is T10, UKNP5.2.1 E2E1-I53-50A trimer (Hepatitis C virus genotype 5, strain …, UniProt A0A0U3TV66, stabilised).
T10 construct: also called UKNP5.2.1 E2E1 trimer; source: HEK293F, co-transfected with furin, purified (Strep-TactinXT, SEC); copies: 3 + 3
Put plainly: ELISA. Particulars: both partners purified. The source holds these as a separate data set.

The target in experiment [11] is T11, UKNP6.1.2 E2E1-I53-50A trimer (Hepatitis C virus genotype 6, strain …, UniProt A0A0U3SJ35, stabilised).
T11 construct: also called UKNP6.1.2 E2E1 trimer; source: HEK293F, co-transfected with furin, purified (Strep-TactinXT, SEC); copies: 3 + 3
Kind of experiment: ELISA. Conditions: both partners purified. The source holds these as a separate data set.

The target of experiment [12] is T5, UKNP5.2.1 E2E1-I53-50A trimer. Kind of experiment: cell-based or functional assay.

Residue numbers refer to the chain shown, from its start.

B1: HEPC3 (antibody, V domains shown)
VH: QVQLVQSGAEVKKPGSSVKVSCKASGGTLNSYEITWVRQAPGQGLEWMGGITPIFETTYAQKFQGRVTITADESTSTTYMELSSLRPEDTAVYYCARDGVRYCGGGRCYNWFDPWGQGTLVTVSS
VL: DIQMTQSPSSLSASVGDRVTITCRAGQNINNYLNWYQQKPGKAPKVLIYAASNLQSGVPSRFSGSGSGTDFTLTISSLQPEDFATYYCQQSHSTVRTFGQGTKVEIK
notes: also called mature HEPC3; source: HEK293F, transfected, purified (protein A/G)
For the molecule B1, the binding result in experiment [1], in experiment [2], in [3], in experiment [4], in experiment [5] and in [6] was “binds” in each case.

B2: AR3D (antibody, V domains shown)
VH: LLEQSGAEVKKPGSSVKVSCKASGDTFRSYVITWARQAPGQGLEWMGAIIPFFGTTNLAQKFQGRVTITADESTKTVYMDLSSLRSDDTAVYYCAKAGDLSVGGVLAGGVPHLRHFDPWGQGTLVTVSS
VL: ELTQSPGTLSLSPGERATLSCRAGQTVASNSLAWYQHKPGQAPRLLIYGASIRASGIPDRFSGSGSGTDFTLTISRLEPEDFAVYYCQQYGLSSTFGQGTRLEIK
notes: also called mature AR3D; source: HEK293F, transfected, purified (protein A/G)
On to B2, for which the binding result in experiment [1], in experiment [7], in experiment [8], in experiment [9], in [10] and in [11] was “binds” each time.

B3: AR3C (antibody, V domains shown)
VH: VQLLEQSGAEVKKPGSSVKVSCETSGGTFDNYALNWVRQAPGQGLEWIGGVVPLFGTTRNAQKFQGRVTISDDKSTGTGHMELRSLRSEDTAVYYCVRSVTPRYCGGGFCYGEFDYWGQGTLVTVSS
VL: EIELTQSPATLSVSPGERATLSCRASQSVSSNLAWYQQKPGQAPRLLIYGASTRATGIPARFSGSGSGTEFTLTVSRLEPEDSAVYFCQQYYRSPLTFGGGTKVEIK
notes: also called mature AR3C; conventional AR3C; source: HEK293F, transfected, purified (protein A/G)
For B3, the binding result in experiment [1], in experiment [2], in experiment [3], in experiment [4], in experiment [5] and in experiment [6] was “binds” in each case.

B4: AT1209 (antibody, V domains shown)
VH: QVLVQSGAEVKKPGSSVRVSCKASGDTFKTHAISWVRQAPGQGLEWVGGTVRQAPGDGLELLGGFVPILAPANDAQKFQGRVTITADGSTGPVYMDLSTLTSEDTAMYYCVTSLSEPIPRSCRGGRCYSGPFDAFGVWGQ
VL: EIMLTQSPVTLSVSPGERATLSCRASQSIGTNLAWYQKPGQAPRLLIHGASTRATGVPVSFSGSGSGTEFTLTISSLQSEDFAVYYCQQYNNWPLTFGGGTKVEIK
notes: also called mature AT1209; source: HEK293F, transfected, purified (protein A/G)
Turning to B4, the binding result in [1], in [2], in [3], in [4], in experiment [5] and in [6] was “binds” throughout.

B5: HEPC74 (antibody, V domains shown)
VH: QVQLVQSGAEVKKPGSSVKVSCTTSGGTYINYAISWVRQAPGQGLEWVGGMSPISNTPKYAQKFQGRVTITADESTSTTYMELSSLRPEDTAVYYCARDLLKYCGGGNCHSLLVDPWGQGTLVTVSS
VL: DIVMTQSPSTLSASVGDRVTISCRASQSISSWLAWYQQKPGRAPKLLIYKASSLETGVPSRFSGSGSGTEFTLTISSLQPDDFATYYCQHYNTYLFTFGPGTKVDLK
notes: also called mature HEPC74; conventional HEPC74; source: HEK293F, transfected, purified (protein A/G)
Turning to B5, the binding result in [1], in experiment [2] and in experiment [3] was “binds” throughout. For the same molecule, in [12], the “neutralisation of UKNP5.2.1 HCVpp, IC50” value came out at 0.03 µg/mL.

B6: HEPC74 S54L (antibody, V domains shown)
VH: B5 VH with S55L
VL: B5 VL
notes: human IgG1; source: HEK293F, transfected, purified (protein A/G)
Regarding B6, the binding result in experiment [1], in experiment [2], in [3], in [4], in experiment [5] and in experiment [6] was “binds” throughout.
